Measurements reported in the DeepSol protein solubility set.

Assay: soluble on expression in E. coli; label from the status in PepcDB or PDB records

Sequence	soluble on expression in E. coli
MSQEIRQNEKISYRIEGPFFIIHLINPDNLNALEGEDYIYLGELLELADRNRDVYFTIIQSSGRFFSSGADFKGIAKAQGDDTNKYPSETSKWVSNFVARNVYVTDAFIKHSKVLICCLNGPAIGLSAALVALCDIVYSINDKVYLLYPFANLGLITEGGTTVSLPLKFGTNTTYECLMFNKPFKYDIMCENGFISKNFNMPSSNAEAFNAKVLEELREKVKGLYLPSCLGMKKLLKSNHIDAFNKANSVEVNESLKYWVDGEPLKRFRQLGSKQRKHRL	soluble
MAHHHHHHMDPGAVMPGIVQMSKDNFDQLVGKEKAVLVEFYAPWCGHCKSMAPEYAALGAAYEASTNAKDLLLVGKVDATQDSDLGKRFGVTGFPTILYFAPGSLEPEKYKGGRTAEDFAKYLSSAIAGLRLTIPIEPQFAMELVHTNFDAVVKDPSKAVLVMFYAPWCGHCKALKPIYNTLAKVFSNDKDVVIARINADDAANRKIATEYAVAGFPTVYFFPKGADEKPVEYKNGRNLEDFLTFVNENAGKHRLANGDFSWECGVIAELAEAVALVATSSGESSKAAVEAVKAAAAKLAESEDAAYYIKAAERIAAKGPAYVESESARLKRTLGGSVAGDRRDNMVRRLNILTSIQKHMK	not soluble
MGSDKIHHHHHHMSQATAKVNREVQAFLQDLKGKTIDHVFFVACGGSSAIMYPSKYVFDRESKSINSDLYSANEFIQRNPVQLGEKSLVILCSHSGNTPETVKAAAFARGKGALTIAMTFKPESPLAQEAQYVAQYDWGDEALAINTNYGVLYQIVFGTLQVLENNTKFEQAIEGLDQLQAVYEKALKQEADNAKQFAKAHEKESIIYTMASGANYGVAYSYSICILMEMQWIHSHAIHAGEYFHGPFEIIDESVPFIILLGLDETRPLEERALTFSKKYGKKLTVLDAASYDFTAIDDSVKGYLAPLVLNRVLRSYADELAEERNHPLSHRRYMWKVEY	not soluble
MGSDKIHHHHHHMAEKTIVEKLQLTKYKEAVILNQPNGADYFQNLANYEEKLADKQYDLIFDFVETLEELITFVQKVIAENKLAANGYLFFAYPKKGNKKFATYVHRDELMPALKTDEEGYVDGSTLKFTRMVALDETYTVVGLKEAAKLKAKGVKKNNPSADEYADHVPLVAEFLADKGDLQAFYNNLATGYQRVWARYIYSAKQPATQEKRRLEMVDILSQGYKTKDLYRQGKK	not soluble
MAHHHHHHMRTDKCVSEAVQTFREAQNLLPTLYTHLSALENIMTQKGALVGAARRREQCFAKALPASHFLCMDTGTEERTLPQATTAGPSCVHTTSPVMTSPLGVLAAFSASTVHHLVAQHQRDVEELLGVVSRITQRSWSQKVEQLKSKIAQLERASEVGETPEHPPSAGGIVAVSSTPASSSYFATASELSVALYGFAACLLKMGNVLQETMLALRKDARLSLMAHAAPGSAALLTSTSADTASHLAAMLAREDRTSEGMSLLPMHSSHCGSLHEATSASSPFSGAAGVQAAPLQPMRLVDAVGKLKSFLEARWKSCCDSYLAPESHLLLALV	soluble
MNSAVGAELFMGDDGVSLRPGLGGTESVLESWRYIMGKLRVGRFLISSRVNGPGRRFVIWFQGCPIRCRGCLNPEFHDEDGGHLIETARLVDMIRDLRDEIEGVTFTGGEPLAQAMELVKLAGAVKSMGLTVVCFTGYEMDEILKGNIEGGLELLEFVDVLIDGPYIEEKSAPLLWRGSTNQDVYFLTERYAEFRDRVMACSEMEAELKVGADGVYMTGIFDVEFWEELRRRLGDGSLEHHHHHH	not soluble
MGSDKIHHHHHHMAHQPVGTGSSIEVSVNPGHSRTSGVISHMSDTLRVAIVGDSDLQGAHVAISKSEFSPAADATDYLVLKDKPATISISRPSSQRVVGITTGSTTLIDFPEGTGSPFGINDMVTLRVIDQPYFEAAIGFGTVTKVWNAANIGGHYSTRITVNADTSGIKTDYVSTNWAELRSSFKVSSLGIGVGGKTGALYFQQVQITGE	not soluble
MAQHEVITRGGDAFLLKLRESALSSGSMSEEQFFLLIGISSIHSDRVILAMKDYLVSGHSRKDVCEKYQMNNGYFSTTLGRLTRLNVLVARLAPYYTDSVSAIAEAASL	soluble
GSSQISDMTRDGLANKALAVARTLADSPEIRQGLQKKPQESGIQAIAEAVRKRNDLLFIVVTDMQSLRYSHPEAQRIGQPFKGDDILKALNGEENVAINRGFLAQALRVFTPIYDENHKQIGVVAIGLELSRVTQQINDSRW	soluble
MSVERSLEAWEEVQRHGQDLADRLAQGFNGLIQINPPSFPSKLFDLEFSSQHFGIRDSRFSIHQPINGVSAILDIGNKIGQAGVDFGSGLNVMVQQFFRRLPVPFRHDENVFVSTERDTVTRSHRAYVDTKENSAFSKTDTASSGTVYEEKVTEFDLRTIGLHRRAKGTVELSSSYETRTSSMEHSLAARGDLWRVEASTSNSPVRDDSSSLFLLQLGPLLFLRDSTLLLPVHLSKQHLLWYGYDRKKGMHSLCPALWSKHRRWLMMSMLCLNPLDCSFVDLQFPNGQLTYVSGEGLTTSVFVPLCGGLLQAQGQYPGDMRFSFSCKSKQGTRITPMINWPDKSLALGVSQALAWRRSGVMLKPAIQLSVCSTFGGSNPGIKTEVIQSLNDNINMICGCAFTAHPSTFASVSFGRSKWNGNIGRTGIVVRADTPLPNVARPSFSIQINNAFEF	soluble
SADSEADKPLRKISAAFKKLAIIVNSPNPEVPVTQFSHACSLVSPLFGCLGIAFKFAEMDYVAKVDDLVRASSSISTLVVMMDKDIEADCVRKAGSHTRNLLRVKRGLDMVKVLFEQIIASEGDNSLKDPATKSYAQVFAPHHGWAIRKAVSLGMYALPTRAHLLNMLKEDEAAAKIHMQSYVNSSAPLITYLDNLFLSKQLGIDW	soluble
MGSDKIHHHHHHMRSLSEFIENSQDKREIQRALAVKMLLEGYTHVAIQSILDVSSGFISKWKKAFFTFGVEGLKLRYKGSQGFLNPQQRYCVIEWLKTKEKWNLSELEYEIASSYGVVFESKQSYYDLFDAAGISWKKTQAHNPKYDEELVASKKKEICELLETRRSEIESGKLVVFMVDECHLLWGDICGYVWGKTSERISVPVVNARDKQTYFGAIDYKTHEFITYAAKKGDSQNMINFLEYLQSQRPGANLLIIWDGASYHRSNAIQDYLDSLNRQLEQEQWLITCKRFAPNAPQQNPVEDIWLQAKKLIREFYFFCHSFSVVKALFELAVNGQIFDFPKLNEYGNFSQMI	not soluble
MSGNYDKNNINNFIDKNDEHDMSDILHKINNEEKKYEEIKSYSECLELLYKTHALKLGLDNPKKLNESFGHPCDKYKTIHIAGTNGKGSVCYKIYTCLKIKKFKVGLFSSPHIFSLRERIIVNDEPISEKELIHLVNEVLNKAKKLYINPSFFEIITLVAFLHFLNKKVDYAIIETGIGGRLDATNILTKPEVIVITSIGYDHLNILGDNLPIICNEKIGIFKKDANVVIGPSVAIYKNVFDKAKELNCTIHTVVPEPRGERYNEENSRIALRTLEILNISIDYFLKSIIPIKPPLRIQYLATEQIQHIKKKFSPDNLEHNVQYPLAVILDVGHNETAIDRLCTDINYFHKGQNIRICISITKPRNLSVFHPFIAQFGDTLKDIFYLPSLNERTYDFEEIVEMLNNEEEIKNEIKELILSSSKKVGKWLAHEKQGNINEEDALKLYKRGCIPLIIKNAFLECCKDNSILLVCGTFFVFDEVLNVFDIHSDMQDTIFMNEPS	not soluble
MSLHPHAMPDMGPDMNKVPWMGDEQIAMLVYPGMTVMDLVGPHCMFGSLMGAKIYIVAKSLDPVTSDAGLAIVPTATFGTCPRDLTVLFAPGGTDGTLAAASDAETLAFMADRGARAKYITSVCSGSLILGAAGLLKGYKATSHWSCRDALAGFGAIPTEARVVRDRNRITGAGVTAGLDFGLSMVAELRDQTYAECAQLMSEYDPDPPFNAGSMKTAPAHVRTAMIELVAEFTKKADALAGFPKEGHHHHHH	soluble
MSLKMEDIAISITGYSYSNIKETIPDGVDKEEIAAVYEEIIDEYLQKGIPREIPALINVSGVPGAGKSTFCKKLLAMPENSSAIYIGFDAIMENERLPYIREEVNHAEEAFKRWELSARIAGYELLKRAIENKYLIIFDHSSALSQHIDLFNLLLSEGYEVHFNFIFIPEEEARRRAKNRKRYIPPYYIEERSKTLQYLLPEYKRICTTFKQIEPMRTRLIIARHGNTFRPEETPTRVGAKTDLPLVEEFKGRSIGRYLKEHDMIPDVIYAAPLLRTMQTARLAVQTIGLDSDISPLNAFVEIDYGVDENKTEEEVRLRLGNGNIEKGKKIIEDWDKNAVVPDGWKVDPDQIIHTWLDFAEKTVIPHQTTLLVTSNGIIRFAPYLTGDFEKFAQEHKIKVAPGGLCIFDKNDGDSFWTCSAWNVKPYELYADSEGHHHHHH	soluble
MKVDGKHTRTIWLEADGWTVGTIDQRRLPHDYVVVKLTSSDDAADAIRTMLVRGAPLIGATAAYGMALAMREDASDAGLDAAYAKLVATRPTAINLKWALDEMRRALAPVQPADRVAAAYRRAGEIADEDVAINQAIGASGLKLIEAIAATKKPGERVNVLTHCNAGWLATVDWGTATAPIYQAFDAGIPIHVYADETRPRNQGASLTAWELGHHGVDHTVIPDNTGGHLMQHGLVDIVIVGTDRVTADGDVCNKIGTYLKALAAADNKVPFYVALPSPTIDFTIHDGVREIPIEQREAAEVTDMTGRTNDGRIETVRIVPQGSKVANYGFDVTPARLVTGLITERGVLKADRAALAAAFPERVAQAKELLRASAAALEHHHHHH	soluble
MGRQGSLALLLSIILIGETIANEYDGLSSHQSHQSTVTSAPIHVSEQQTSRNRPYNQPQLQQKPSVLTQSYQVLPESRNYYQYPQYLPTHTGYSNIQTVGQPYQMYGSAPGSNVVSGGNSESYGYNQQAPVPTVAPAPVHFSERQRSYSAAPTPPSPFSETRERENNNVRAPGHHAPAQQGHRSPSPPPSPFMINPKPVLSYGAANPFLANLPPAQGVYGAPIDSSHRGYDGFSLSAPAPPSGSSASVDDTWEALEASLDANTRRRHRIF	not soluble
MLSLPPPEFYKLWIINKSPYQLFNIYRSGIMKVKVLDASAIIHGYNPIIEEGEHYTTPEVLEEIESKKIIVEQALDFGKLKIMSPNREYIKKVEEVVKKTGDNLSQQDIGVLALALNLNAILYTDDYGIQNVAKKLNIEVRGIAFEPTNKDFIWRKICEGCKKLYPVDYEEDICEICGSPLKRKMVKSRLKKKRKKKLEHHHHHH	soluble
MPRKKSAGPRSFGEPLTDDPDDAPELLDEFFRTGEIRVDGKIVRRGRPPLGTQPKSSVTLRLDADVLDAYRALGRGWQSQINADLRRVRKLKKA	not soluble
MRTIPPDDVYISSTLPFEETTTEMMTTMETSTMTEKVCPEMPATTCMDLIKLGAKLELAEVDGCQVVQCTGGQIPRLITRNSVFSPKLYAGLSDATIVFPVPPTTLAGFGGKSFFDYYGLICDTFNGNFYWTMTKYPDGLIDLGGGQPILGSDGSYDGKQAPIEQVDCQEPK	not soluble
MEELFCIGCGIQIQTEDKEKAGFTPAAALKKGMETGELYCQRCFRLRHYNEITDVHITDDEFLRLLHEVGDSDALVVNVIDIFDFNGSIIPGLSRFISGNDVLLVGNKKDILPKSVKDGKVTQWLTERAHEEGLRPLDVMLTSAQNKYAIKDLIGRINELRNGRDVYVVGVTNVGKSTLINAIIQEITGNKDVITTSRFPGTTLDKIEIPLDDGTFIFDTPGIIHRHQMAHYLSPKELKIVSPKKEIKPKTYQLNPEQTLFLGGLARFDFINGERQGFTAFFDNQLELHRTKLAGADAFYDKHVGTLLTPPDKKELTAFPKLVRHEFTIDQKMDIVFSGLGWIRVNGQKDSKAIVAAWAPEGVAVIVRKAII	soluble
